# In patent publication US10562947B2, “Compositions and methods for preventing or treating diseases, conditions or processes characterized by aberrant fibroblast proliferation and extracellular matrix deposition” (MOERAE MATRIX, INC., priority 2011, dated 2020):
# Experiments:
# Test in all cases: Kinase Profiling Assay
# Format in all cases: biochemical
# Conditions in all cases: 100 μM peptide
# Abl(T315I)(h) = Abl(T315I)(h) (Homo sapiens, UniProt P00519, T315I)
# Outline: (§1)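 In duplicate, the activities of 266 available human kinases were determined with MK2 inhibitory peptides present, as a measure of peptide selectivity.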
# Arg(h) = Arg(h) (Homo sapiens, UniProt P42684)
# Outline: as §1
# HIPK1(h) = target: T1, HIPK1(h) (Homo sapiens, UniProt Q86Z02)
# T1 construct: purchased Millipore
# T1 sequence (Q86Z02 whole entry): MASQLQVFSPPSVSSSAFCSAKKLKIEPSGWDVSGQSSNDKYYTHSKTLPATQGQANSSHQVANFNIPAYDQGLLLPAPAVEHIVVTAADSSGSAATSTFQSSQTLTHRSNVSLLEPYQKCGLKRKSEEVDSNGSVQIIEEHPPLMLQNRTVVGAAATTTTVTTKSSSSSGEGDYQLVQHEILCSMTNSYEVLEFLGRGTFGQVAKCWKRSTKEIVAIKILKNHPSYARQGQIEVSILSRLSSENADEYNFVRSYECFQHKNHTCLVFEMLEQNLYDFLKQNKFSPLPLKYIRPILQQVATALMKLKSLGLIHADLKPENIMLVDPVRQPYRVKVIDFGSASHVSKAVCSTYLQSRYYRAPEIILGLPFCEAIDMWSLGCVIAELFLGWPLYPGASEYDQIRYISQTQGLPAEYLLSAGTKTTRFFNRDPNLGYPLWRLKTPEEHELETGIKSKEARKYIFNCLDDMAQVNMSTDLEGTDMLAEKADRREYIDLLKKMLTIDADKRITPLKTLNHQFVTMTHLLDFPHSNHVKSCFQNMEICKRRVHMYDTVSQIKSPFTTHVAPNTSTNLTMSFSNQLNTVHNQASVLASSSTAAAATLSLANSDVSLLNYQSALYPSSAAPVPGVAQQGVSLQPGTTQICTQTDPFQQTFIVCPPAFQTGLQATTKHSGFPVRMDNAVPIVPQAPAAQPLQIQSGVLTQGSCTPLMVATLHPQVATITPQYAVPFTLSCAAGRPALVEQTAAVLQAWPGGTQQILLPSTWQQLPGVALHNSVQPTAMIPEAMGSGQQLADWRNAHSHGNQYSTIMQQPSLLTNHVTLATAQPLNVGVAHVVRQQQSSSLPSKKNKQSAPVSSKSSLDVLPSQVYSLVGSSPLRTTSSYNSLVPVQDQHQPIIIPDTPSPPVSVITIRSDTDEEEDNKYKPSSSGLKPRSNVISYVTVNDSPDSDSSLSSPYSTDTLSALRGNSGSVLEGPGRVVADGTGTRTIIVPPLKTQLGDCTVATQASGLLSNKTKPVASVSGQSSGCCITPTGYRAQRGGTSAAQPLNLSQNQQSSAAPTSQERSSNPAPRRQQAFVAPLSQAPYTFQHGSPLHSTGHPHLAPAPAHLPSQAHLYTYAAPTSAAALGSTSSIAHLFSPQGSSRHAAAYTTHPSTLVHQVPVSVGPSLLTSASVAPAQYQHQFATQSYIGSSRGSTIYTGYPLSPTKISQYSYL
# Outline: as §1
# MLK1(h) = MLK1(h) (Homo sapiens, UniProt P80192)
# Chain of MLK1(h) (P80192 whole entry): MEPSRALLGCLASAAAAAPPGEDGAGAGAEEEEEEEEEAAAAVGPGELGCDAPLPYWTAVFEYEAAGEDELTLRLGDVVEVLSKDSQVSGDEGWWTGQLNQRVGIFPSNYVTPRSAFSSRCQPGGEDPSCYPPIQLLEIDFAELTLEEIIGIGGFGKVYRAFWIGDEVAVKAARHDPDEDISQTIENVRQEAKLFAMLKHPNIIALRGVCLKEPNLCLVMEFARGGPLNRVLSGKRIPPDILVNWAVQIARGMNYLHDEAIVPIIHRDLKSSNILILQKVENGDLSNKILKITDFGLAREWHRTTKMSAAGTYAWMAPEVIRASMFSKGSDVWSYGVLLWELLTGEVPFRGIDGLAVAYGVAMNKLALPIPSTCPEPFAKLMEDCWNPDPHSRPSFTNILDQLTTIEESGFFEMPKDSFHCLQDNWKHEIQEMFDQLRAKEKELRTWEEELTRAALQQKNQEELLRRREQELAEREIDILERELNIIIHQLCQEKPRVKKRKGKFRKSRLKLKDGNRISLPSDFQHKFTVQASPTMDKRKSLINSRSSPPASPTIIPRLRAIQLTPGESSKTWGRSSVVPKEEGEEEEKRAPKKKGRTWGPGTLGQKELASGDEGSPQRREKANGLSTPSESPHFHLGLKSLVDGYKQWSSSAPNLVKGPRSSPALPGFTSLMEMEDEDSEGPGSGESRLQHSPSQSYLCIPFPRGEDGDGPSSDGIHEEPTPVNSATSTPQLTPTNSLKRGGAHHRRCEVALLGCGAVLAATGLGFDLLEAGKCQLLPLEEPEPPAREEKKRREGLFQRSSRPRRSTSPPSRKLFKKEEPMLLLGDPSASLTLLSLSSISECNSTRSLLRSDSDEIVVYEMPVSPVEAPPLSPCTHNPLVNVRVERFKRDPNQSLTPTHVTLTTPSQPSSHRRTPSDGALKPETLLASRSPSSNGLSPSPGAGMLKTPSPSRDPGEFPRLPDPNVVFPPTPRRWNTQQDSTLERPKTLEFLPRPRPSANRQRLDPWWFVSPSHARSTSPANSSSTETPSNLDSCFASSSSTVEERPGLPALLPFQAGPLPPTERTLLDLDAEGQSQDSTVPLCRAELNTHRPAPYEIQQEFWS
# Outline: as §1
# PKCϵ(h) = target: T2, PKCϵ(h) (Homo sapiens, UniProt Q02156)
# T2 sequence (Q02156 1-737): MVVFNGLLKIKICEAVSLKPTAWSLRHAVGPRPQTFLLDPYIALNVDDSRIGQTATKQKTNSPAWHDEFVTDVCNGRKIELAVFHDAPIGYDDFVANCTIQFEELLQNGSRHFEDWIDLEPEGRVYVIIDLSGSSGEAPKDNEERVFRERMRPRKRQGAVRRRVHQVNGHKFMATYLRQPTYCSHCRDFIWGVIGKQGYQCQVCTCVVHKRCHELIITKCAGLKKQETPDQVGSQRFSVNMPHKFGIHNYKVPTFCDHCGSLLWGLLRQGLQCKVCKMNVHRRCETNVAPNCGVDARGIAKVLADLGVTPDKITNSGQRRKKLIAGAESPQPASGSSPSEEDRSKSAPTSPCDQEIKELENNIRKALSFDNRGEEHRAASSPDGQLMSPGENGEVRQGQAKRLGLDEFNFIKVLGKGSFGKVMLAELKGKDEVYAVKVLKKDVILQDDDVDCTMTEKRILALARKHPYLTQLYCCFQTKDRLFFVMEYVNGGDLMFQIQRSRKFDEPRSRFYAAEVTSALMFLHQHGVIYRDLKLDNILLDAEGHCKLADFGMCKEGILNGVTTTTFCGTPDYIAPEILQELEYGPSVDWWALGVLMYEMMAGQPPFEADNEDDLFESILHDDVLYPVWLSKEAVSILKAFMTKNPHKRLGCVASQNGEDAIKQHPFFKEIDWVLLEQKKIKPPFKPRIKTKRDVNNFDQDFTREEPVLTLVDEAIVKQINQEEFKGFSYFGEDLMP
# Outline: as §1
# PKD2(h) = target: T3, PKD2(h) (Homo sapiens, UniProt Q9BZL6)
# T3 construct: purchased Millipore (IC50 Profiler Express service)
# T3 sequence (Q9BZL6 1-878): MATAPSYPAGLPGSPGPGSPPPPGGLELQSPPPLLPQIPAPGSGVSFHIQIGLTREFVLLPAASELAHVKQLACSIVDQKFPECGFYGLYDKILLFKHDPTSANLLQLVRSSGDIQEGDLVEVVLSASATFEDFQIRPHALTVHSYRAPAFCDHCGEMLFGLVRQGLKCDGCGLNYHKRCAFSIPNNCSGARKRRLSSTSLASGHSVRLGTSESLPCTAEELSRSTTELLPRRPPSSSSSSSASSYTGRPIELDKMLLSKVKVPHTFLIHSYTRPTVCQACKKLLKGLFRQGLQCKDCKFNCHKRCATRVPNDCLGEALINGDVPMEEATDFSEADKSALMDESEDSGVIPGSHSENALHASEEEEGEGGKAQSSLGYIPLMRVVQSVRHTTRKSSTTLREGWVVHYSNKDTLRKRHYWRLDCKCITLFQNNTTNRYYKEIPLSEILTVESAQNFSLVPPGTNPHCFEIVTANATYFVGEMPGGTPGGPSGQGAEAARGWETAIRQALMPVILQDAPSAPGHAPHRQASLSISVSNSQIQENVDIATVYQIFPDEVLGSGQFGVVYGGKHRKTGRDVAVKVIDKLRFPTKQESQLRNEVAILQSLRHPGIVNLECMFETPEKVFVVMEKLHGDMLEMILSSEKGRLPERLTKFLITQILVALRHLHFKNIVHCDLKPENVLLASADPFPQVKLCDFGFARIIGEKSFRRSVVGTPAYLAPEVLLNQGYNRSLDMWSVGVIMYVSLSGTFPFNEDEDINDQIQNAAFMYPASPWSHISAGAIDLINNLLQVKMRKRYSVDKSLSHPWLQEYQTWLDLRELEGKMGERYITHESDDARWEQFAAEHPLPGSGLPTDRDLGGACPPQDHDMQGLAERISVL
# Outline: as §1
# Pim-2(h) = Pim-2(h) (Homo sapiens, UniProt Q9P1W9)
# Chain of Pim-2(h) (Q9P1W9 whole entry): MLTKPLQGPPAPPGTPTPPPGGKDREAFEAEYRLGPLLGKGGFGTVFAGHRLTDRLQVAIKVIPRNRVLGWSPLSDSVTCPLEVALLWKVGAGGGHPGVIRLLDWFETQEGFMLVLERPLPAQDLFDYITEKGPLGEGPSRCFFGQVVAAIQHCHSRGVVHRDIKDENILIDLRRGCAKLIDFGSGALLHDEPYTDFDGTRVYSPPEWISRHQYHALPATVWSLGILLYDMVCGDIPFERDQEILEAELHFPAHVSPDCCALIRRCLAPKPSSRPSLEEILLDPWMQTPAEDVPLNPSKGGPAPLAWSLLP
# Outline: as §1
# ROCK-I(h) = target: T4, ROCK-I(h) (Homo sapiens, UniProt Q13464)
# T4 construct: purchased Millipore (IC50 Profiler Express service)
# T4 sequence (Q13464 whole entry): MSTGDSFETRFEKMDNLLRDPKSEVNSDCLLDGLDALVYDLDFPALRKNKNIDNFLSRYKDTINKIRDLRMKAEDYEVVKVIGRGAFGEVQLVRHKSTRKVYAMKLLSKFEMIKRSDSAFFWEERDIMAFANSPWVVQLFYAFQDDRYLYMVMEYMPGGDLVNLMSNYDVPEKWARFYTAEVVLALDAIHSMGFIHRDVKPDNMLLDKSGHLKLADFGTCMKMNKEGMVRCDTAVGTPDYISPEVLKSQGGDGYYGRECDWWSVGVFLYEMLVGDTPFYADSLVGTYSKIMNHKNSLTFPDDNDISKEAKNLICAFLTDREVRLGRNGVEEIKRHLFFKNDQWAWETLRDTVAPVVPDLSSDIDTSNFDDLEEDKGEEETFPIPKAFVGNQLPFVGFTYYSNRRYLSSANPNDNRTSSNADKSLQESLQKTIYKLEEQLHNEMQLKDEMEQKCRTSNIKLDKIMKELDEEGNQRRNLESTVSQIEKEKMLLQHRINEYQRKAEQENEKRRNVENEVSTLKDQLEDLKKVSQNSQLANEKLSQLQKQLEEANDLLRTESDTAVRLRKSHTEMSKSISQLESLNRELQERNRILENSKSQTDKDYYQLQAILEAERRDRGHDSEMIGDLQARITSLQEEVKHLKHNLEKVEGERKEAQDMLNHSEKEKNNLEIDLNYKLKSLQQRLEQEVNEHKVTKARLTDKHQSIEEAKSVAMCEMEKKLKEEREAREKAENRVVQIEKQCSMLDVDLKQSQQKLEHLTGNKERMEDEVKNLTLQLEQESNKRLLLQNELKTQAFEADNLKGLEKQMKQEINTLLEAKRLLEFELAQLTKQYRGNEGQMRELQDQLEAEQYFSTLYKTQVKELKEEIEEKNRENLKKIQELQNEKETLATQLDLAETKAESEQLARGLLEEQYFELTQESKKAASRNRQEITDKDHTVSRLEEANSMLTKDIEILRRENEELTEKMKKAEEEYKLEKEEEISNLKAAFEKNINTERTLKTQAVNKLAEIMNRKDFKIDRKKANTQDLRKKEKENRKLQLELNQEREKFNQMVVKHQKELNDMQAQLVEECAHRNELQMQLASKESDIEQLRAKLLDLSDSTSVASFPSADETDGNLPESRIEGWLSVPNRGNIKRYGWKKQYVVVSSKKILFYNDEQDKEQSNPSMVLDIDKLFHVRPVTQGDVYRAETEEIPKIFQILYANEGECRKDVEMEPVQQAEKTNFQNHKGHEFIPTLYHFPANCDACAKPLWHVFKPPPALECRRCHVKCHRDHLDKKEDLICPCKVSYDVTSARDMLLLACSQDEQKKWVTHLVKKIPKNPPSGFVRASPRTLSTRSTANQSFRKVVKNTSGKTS
# Outline: as §1
# Rse(h) = target: T5, Rse(h) (Homo sapiens, UniProt Q06418)
# T5 construct: purchased Millipore (IC50 Profiler Express service)
# T5 sequence (Q06418 41-890): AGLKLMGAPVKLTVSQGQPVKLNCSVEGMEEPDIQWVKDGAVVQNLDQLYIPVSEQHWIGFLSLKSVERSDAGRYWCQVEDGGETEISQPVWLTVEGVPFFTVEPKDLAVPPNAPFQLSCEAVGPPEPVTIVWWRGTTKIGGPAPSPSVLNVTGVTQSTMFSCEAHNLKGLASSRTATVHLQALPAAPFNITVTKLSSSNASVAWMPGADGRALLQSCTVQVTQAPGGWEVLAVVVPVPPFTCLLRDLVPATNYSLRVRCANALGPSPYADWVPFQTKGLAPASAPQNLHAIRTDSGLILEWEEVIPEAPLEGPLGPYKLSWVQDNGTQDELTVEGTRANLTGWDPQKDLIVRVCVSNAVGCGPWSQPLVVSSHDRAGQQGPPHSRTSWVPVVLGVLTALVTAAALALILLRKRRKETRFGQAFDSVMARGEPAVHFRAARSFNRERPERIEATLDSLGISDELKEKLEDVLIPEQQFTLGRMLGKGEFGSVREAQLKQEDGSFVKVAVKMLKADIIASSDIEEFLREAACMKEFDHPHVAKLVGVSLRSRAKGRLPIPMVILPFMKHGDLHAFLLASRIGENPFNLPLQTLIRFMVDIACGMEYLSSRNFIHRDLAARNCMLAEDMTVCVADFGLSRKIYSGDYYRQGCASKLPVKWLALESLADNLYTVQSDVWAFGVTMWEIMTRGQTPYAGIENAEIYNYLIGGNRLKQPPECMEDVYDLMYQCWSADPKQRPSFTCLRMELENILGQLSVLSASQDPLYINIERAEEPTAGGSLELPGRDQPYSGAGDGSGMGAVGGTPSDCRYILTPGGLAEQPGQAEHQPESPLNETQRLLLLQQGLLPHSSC
# Outline: as §1
Sequence,Abl(T315I)(h) % activity (Abl(T315I)(h)) [%],Arg(h) % activity (Arg(h)) [%],HIPK1(h) % activity (HIPK1(h)) [%],MLK1(h) % activity (MLK1(h)) [%],PKCϵ(h) % activity (PKCϵ(h)) [%],PKD2(h) % activity (PKD2(h)) [%],Pim-2(h) % activity (Pim-2(h)) [%],ROCK-I(h) % activity (ROCK-I(h)) [%],Rse(h) % activity (Rse(h)) [%]
FAKLAARLYRKALARQLGVAA [MMI-0300],97,72,74,40,79,33,76,79,88
KAFAKLAARLYRKALARQLGVAA [MMI-0400],,84,91,33,59,25,92,73,89
YARAAARQARAKALNRQLGVA (Mammalian) [MMI-0200],108,82,,84,98,78,74,,88
HRRIKAWLKKIKALARQLGVAA (Mammalian) [MMI-0500],16,22,47,43,23,10,46,17,63
